Measured values reported in article PMC7511442.

Tests used:
[1] = biological target: GFP-GiKIN14a (recombinant full-length GiKIN14a with an N-terminal GFP) (Giardia intestinalis); assay: hydrodynamic analysis
[2] = biological target: GFP-GiKIN14a-Δtail (Giardia intestinalis); assay: hydrodynamic analysis
[3] = biological target: GFP-GiKIN14a-Δtail (Giardia intestinalis); assay: single-molecule photobleaching

Row | stoichiometry N [1] | Substance | stoichiometry N [2] | stoichiometry N [3]
1 | 2 | GFP-GiKIN14a (recombinant full-length GiKIN14a with an N-terminal GFP) (natural protein) | – | –
2 | – | GFP-GiKIN14a-Δtail (domain or fragment) | 2 | 2
